# Target: GRB2 (human (cDNA from 293T or brain glioma cells)), P62993
# Assay: molecular recruitment colocalization (MRC), live-cell fluorescence imaging; bait fused to scFv and a fluorescent protein, recruited by dCas9-10xGCN4 (SunTag) and sgRNA MUC4-272kb to a repeated genomic locus in SunTag10x-dCas9-HEK293T cells; preys fused to mCherry or mTagBFP2 with NLS; colocalized spots imaged 24 h after transfection, 37 °C
# Details: remark: other sources report otherwise
# Chain of GRB2 (human (cDNA from 293T or brain glioma cells)), P62993 (P62993 whole entry, the tested form may be a part): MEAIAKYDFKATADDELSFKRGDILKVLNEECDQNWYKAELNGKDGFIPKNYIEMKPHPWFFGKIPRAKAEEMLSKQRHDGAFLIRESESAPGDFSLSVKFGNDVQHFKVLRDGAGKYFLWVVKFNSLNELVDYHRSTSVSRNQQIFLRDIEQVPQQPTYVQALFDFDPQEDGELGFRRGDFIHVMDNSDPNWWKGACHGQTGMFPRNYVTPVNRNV
binder,measurement,value
"SOS1, Q07889 1-1333 (natural protein) MQAQQLPYEFFSEENAPKWRGLLVPALKKVQGQVHPTLESNDDALQYVEELILQLLNMLCQAQPRSASDVEERVQKSFPHPIDKWAIADAQSAIEKRKRRNPLSLPVEKIHPLLKEVLGYKIDHQVSVYIVAVLEYISADILKLVGNYVRNIRHYEITKQDIKVAMCADKVLMDMFHQDVEDINILSLTDEEPSTSGEQTYYDLVKAFMAEIRQYIRELNLIIKVFREPFVSNSKLFSANDVENIFSRIVDIHELSVKLLGHIEDTVEMTDEGSPHPLVGSCFEDLAEELAFDPYESYARDILRPGFHDRFLSQLSKPGAALYLQSIGEGFKEAVQYVLPRLLLAPVYHCLHYFELLKQLEEKSEDQEDKECLKQAITALLNVQSGMEKICSKSLAKRRLSESACRFYSQQMKGKQLAIKKMNEIQKNIDGWEGKDIGQCCNEFIMEGTLTRVGAKHERHIFLFDGLMICCKSNHGQPRLPGASNAEYRLKEKFFMRKVQINDKDDTNEYKHAFEIILKDENSVIFSAKSAEEKNNWMAALISLQYRSTLERMLDVTMLQEEKEEQMRLPSADVYRFAEPDSEENIIFEENMQPKAGIPIIKAGTVIKLIERLTYHMYADPNFVRTFLTTYRSFCKPQELLSLIIERFEIPEPEPTEADRIAIENGDQPLSAELKRFRKEYIQPVQLRVLNVCRHWVEHHFYDFERDAYLLQRMEEFIGTVRGKAMKKWVESITKIIQRKKIARDNGPGHNITFQSSPPTVEWHISRPGHIETFDLLTLHPIEIARQLTLLESDLYRAVQPSELVGSVWTKEDKEINSPNLLKMIRHTTNLTLWFEKCIVETENLEERVAVVSRIIEILQVFQELNNFNGVLEVVSAMNSSPVYRLDHTFEQIPSRQKKILEEAHELSEDHYKKYLAKLRSINPPCVPFFGIYLTNILKTEEGNPEVLKRHGKELINFSKRRKVAEITGEIQQYQNQPYCLRVESDIKRFFENLNPMGNSMEKEFTDYLFNKSLEIEPRNPKPLPRFPKKYSYPLKSPGVRPSNPRPGTMRHPTPLQQEPRKISYSRIPESETESTASAPNSPRTPLTPPPASGASSTTDVCSVFDSDHSSPFHSSNDTVFIQVTLPHGPRSASVSSISLTKGTDEVPVPPPVPPRRRPESAPAESSPSKIMSKHLDSPPAIPPRQPTSKAYSPRYSISDRTSISDPPESPPLLPPREPVRTPDVFSSSPLHLQPPPLGKKSDHGNAFFPNSPSPFTPPPPQTPSPHGTRRHLPSPPLTQEVDLHSIAGPPVPPRQSTSQHIPKLPPKTYKREHTHPSMHRDGPPLLENAHSS",SNR ratio (GRB2/SOS1 puncta),1.46

# Source: article PMC12499469
